According to US20230391887A1:

Legend:
[1] = molecular target: meditope-enabled Trastuzumab v2.0 (83E meditope enabled antibody trastuzumab); assay: SPR, antibody immobilized at 1500 RU, 37 C
[2] = molecular target: meditope-enabled Trastuzumab v2.0 (83E meditope enabled antibody trastuzumab); assay: SPR, antibody immobilized at 150 RU, 37 C, 1:1 fit
[3] = molecular target: meditope-enabled Trastuzumab v2.0 (83E meditope enabled antibody trastuzumab); assay: SPR, antibody immobilized at 750 RU, 37 C, 1:1 fit
[4] = molecular target: meditope-enabled Trastuzumab v2.0 (83E meditope enabled antibody trastuzumab); assay: SPR, antibody immobilized at 1500 RU, 37 C, 1:1 fit

B1: trivalent meditope (TVM) (protein)
chain: GGSAAPSSAPSPSAPCQFDLSTRRLSCGGASPAASPSAPSSPAPKAPSAAPSSAPSPSAPGGCQFDLSTRRLSCGGASPAASPSAPSSPAPKAPSAAPSSAPSPSAPGGCQFDLSTRRLSCGGSPSAPSSPSSPKLPETG
Question: For B1, which fold improvement of half-life against the monovalent meditope [1] is on record?
Answer: Its fold improvement of half-life against the monovalent meditope is > 30 fold.

Question: And the half-life [1]?
Answer: The half-life was 2.42 h.

Question: What about the Kd [2] of the same binder?
Answer: Its Kd is 51.2 nM.

Question: And the koff [2]?
Answer: Its koff is 0.00045 s⁻¹.

Question: What about the kon [2] of the same binder?
Answer: The kon was 8700 M⁻¹ s⁻¹.

Question: What about the t1/2 [2] of the same binder?
Answer: The t1/2 was 0.4 h.

Question: And the Kd [3]?
Answer: The Kd was 14 nM.

Question: And the koff [3]?
Answer: The koff was 0.00014 s⁻¹.

Question: What about the kon [3] of the same binder?
Answer: Its kon is 10000 M⁻¹ s⁻¹.

Question: And the t1/2 [3]?
Answer: The t1/2 was 1.3 h.

Question: What about the Kd [4] of the same binder?
Answer: The Kd was 8.2 nM.

Question: And the koff [4]?
Answer: The koff was 8e-05 s⁻¹.

Question: What about the kon [4] of the same binder?
Answer: Its kon is 9800 M⁻¹ s⁻¹.

Question: And the t1/2 [4]?
Answer: Its t1/2 is 2.4 h.
